Experimental data: patent US20090149339A1 (published 2009)
Ends that are not written are not given here. * marks the point of attachment. Biotin = O=C1N[C@H]2[C@H](CS[C@H]2CCCCC(=O)*)N1

Experiments:
[1] = target: T1, GST-MPP1 PDZ domain fusion protein (55 Kd erythrocyte membrane protein AA101-186; PDZ domain 1 of 1) (UniProt P08515 1-218 = GST); experiment: A assay
[2] = target: T2, GST-DVL1 PDZ domain fusion protein (human dishevelled segment polarity protein homolog AA248-340); PDZ domain … (human, UniProt P08515 1-218 = GST); experiment: A assay
T2 sequence (P08515 1-218, tags or fused parts left off): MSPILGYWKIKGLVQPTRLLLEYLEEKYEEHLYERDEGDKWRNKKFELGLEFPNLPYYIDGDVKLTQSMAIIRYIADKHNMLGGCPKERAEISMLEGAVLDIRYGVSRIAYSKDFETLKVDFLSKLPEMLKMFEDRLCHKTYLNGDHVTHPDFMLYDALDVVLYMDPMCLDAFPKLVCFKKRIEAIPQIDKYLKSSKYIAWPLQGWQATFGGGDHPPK

[3] = target: T3, GST-TAX2 PDZ domain fusion protein (human tax interaction protein 2 AA54-140; PDZ domain 1 of 1) (human, UniProt P08515 1-218 = GST); experiment: A assay
T3 construct: also called TX 2
T3 sequence (P08515 1-218, tags or fused parts left off): as above

[4] = target: T4, GST-TAX43 PDZ domain fusion protein (human tax interaction protein 43 AA15-85; PDZ domain 1 of 1) (human, UniProt P08515 1-218 = GST); experiment: A assay
T4 construct: also called TX 43
T4 sequence (P08515 1-218, tags or fused parts left off): as above

[5] = target: T5, GST-MPP2 PDZ domain fusion protein (maguk p55 subfamily member 2 (DLG2) AA185-273; PDZ domain 1 of 1) (UniProt P08515 1-218 = GST); experiment: G assay
T5 construct: also called MMP2
T5 sequence (P08515 1-218, tags or fused parts left off): as above

[6] = target: T6, GST-SYN1a PDZ domain fusion protein (alpha1-syntrophin AA96-189; PDZ domain 1 of 1) (UniProt P08515 1-218 = GST); experiment: G assay
T6 construct: also called SYN 1 alpha; SYNTR 1 alpha
T6 sequence (P08515 1-218, tags or fused parts left off): as above

[7] = target: T7, GST-CASK PDZ domain fusion protein (CASK AA495-584; PDZ domain 1 of 1) (mouse, UniProt P08515 1-218 = GST); experiment: A/G assays
T7 construct: also called mCASK
T7 sequence (P08515 1-218, tags or fused parts left off): as above

[8] = target: GST-LIM PDZ domain fusion protein (Human LIM protein AA29-112; PDZ domain 1 of 1) (human, UniProt P08515 1-218 = GST); experiment: A/G assays
Chain of GST-LIM PDZ domain fusion protein (Human LIM protein AA29-112; PDZ domain 1 of 1) (P08515 1-218, tags or fused parts left off): as above

[9] = target: GST-LIMK2 PDZ domain fusion protein (human LIM domain kinase 2 AA185-275; PDZ domain 1 of 1) (human, UniProt P08515 1-218 = GST); experiment: A/G assays
Chain of GST-LIMK2 PDZ domain fusion protein (human LIM domain kinase 2 AA185-275; PDZ domain 1 of 1) (P08515 1-218, tags or fused parts left off): as above

[10] = target: GST-NOS1 PDZ domain fusion protein (human neuronal nitric oxide synthase; PDZ domain 1 of 1) (human, UniProt P08515 1-218 = GST); experiment: A/G assays
Chain of GST-NOS1 PDZ domain fusion protein (human neuronal nitric oxide synthase; PDZ domain 1 of 1) (P08515 1-218, tags or fused parts left off): as above

[11] = target: T8, GST-AF6 PDZ domain fusion protein (af-6 protein AA985-1077; PDZ domain 1 of 1) (UniProt P08515 1-218 = GST); experiment: A/G assays
T8 sequence (P08515 1-218, tags or fused parts left off): as above

[12] = target: GST-prIL16 PDZ domain fusion protein (putative interleukin 16 precursor AA170-383; PDZ domains 1-2 of 2) (UniProt P08515 1-218 = GST); experiment: A/G assays
Chain of GST-prIL16 PDZ domain fusion protein (putative interleukin 16 precursor AA170-383; PDZ domains 1-2 of 2) (P08515 1-218, tags or fused parts left off): as above

[13] = target: T9, GST-KIAA0559 PDZ domain fusion protein (KIAA0559 AA766-870; PDZ1 of 1) (UniProt P08515 1-218 = GST); experiment: A/G assays
T9 construct: also called K559
T9 sequence (P08515 1-218, tags or fused parts left off): as above

[14] = target: T10, GST-KIAA0316 PDZ domain fusion protein (KIAA0316 AA197-284; PDZ domain 1 of 1) (UniProt P08515 1-218 = GST); experiment: A/G assays
T10 construct: also called K316
T10 sequence (P08515 1-218, tags or fused parts left off): as above

[15] = target: T11, GST-TAX40 PDZ domain fusion protein (human tax interaction protein 40 AA35-137; PDZ domain 1 of 1) (human, UniProt P08515 1-218 = GST); experiment: A/G assays
T11 construct: also called TX 40
T11 sequence (P08515 1-218, tags or fused parts left off): as above

[16] = target: GST-TIAM1 PDZ domain fusion protein (T-lymphoma invasion and metastasis inducing protein 1 AA1001-1088); PDZ 1 … (UniProt P08515 1-218 = GST); experiment: A/G assays
Chain of GST-TIAM1 PDZ domain fusion protein (T-lymphoma invasion and metastasis inducing protein 1 AA1001-1088); PDZ 1 … (P08515 1-218, tags or fused parts left off): as above

[17] = target: T12, GST-KIAA0303 PDZ domain fusion protein (KIAA0303 AA652-742; PDZ domain 1 of 1) (UniProt P08515 1-218 = GST); experiment: A/G assays
T12 construct: also called K303
T12 sequence (P08515 1-218, tags or fused parts left off): as above

[18] = target: T13, GST-CBP PDZ domain fusion protein (Cytohesin binding protein HE AA85-175; PDZ domain 1 of 1) (UniProt P08515 1-218 = GST); experiment: A/G assays
T13 construct: also called Prot

[19] = target: GST-MINT3 PDZ domain fusion protein (human MINT3 AA11-52; PDZ domain 1 of 1) (human, UniProt P08515 1-218 = GST); experiment: A/G assays
[20] = target: T14, GST-TAX33 PDZ domain fusion protein (tax interaction protein 33 AA73-162; PDZ domain 1 of 1) (UniProt P08515 1-218 = GST); experiment: A/G assays
T14 construct: also called TX33
T14 sequence (P08515 1-218, tags or fused parts left off): as above

[21] = target: T15, GST-PTN-4 PDZ domain fusion protein (protein-tyrosine phosphatase meg1 AA774-862; PDZ domain 1 of 1) (UniProt P08515 1-218 = GST); experiment: A and G assays
[22] = target: T16, GST-41.8 kD PDZ domain fusion protein (hypothetical 41.8 kD protein AA4-85; PDZ domain 1 of 1) (UniProt P08515 1-218 = GST); experiment: A and G assays
T16 construct: also called hypoth

[23] = target: T17, GST-RGS12 PDZ domain fusion protein (human regulator of G-protein signalling 12 AA35-103; PDZ domain 1 of 1) (human, UniProt P08515 1-218 = GST); experiment: A and G assays
T17 construct: also called RSG12
T17 sequence (P08515 1-218, tags or fused parts left off): as above

[24] = target: T18, GST-PSD95 PDZ domain fusion protein (human post-synaptic density protein 95 AA387-724; PDZ domains 1-3 of 3) (human, UniProt P08515 1-218 = GST); experiment: A and G assays
T18 sequence (P08515 1-218, tags or fused parts left off): as above

[25] = target: T19, GST-NeDLG PDZ domain fusion protein (presynaptic protein sao102, neuroendocrine-dlg; PDZ domains 1-2 of 3) (UniProt P08515 1-218 = GST); experiment: A and G assays
T19 construct: also called NeDLG1
T19 sequence (P08515 1-218, tags or fused parts left off): as above

[26] = target: T1, GST-MPP1 PDZ domain fusion protein (55 …); experiment: A/G assays
[27] = target: T5, GST-MPP2 PDZ domain fusion protein …; experiment: A assay
[28] = target: T8, GST-AF6 PDZ domain fusion protein (af-6 …); experiment: A assay
[29] = target: T16, GST-41.8 kD PDZ domain fusion protein …; experiment: A assay
[30] = target: T18, GST-PSD95 PDZ domain fusion protein …; experiment: G assay
[31] = target: T19, GST-NeDLG PDZ domain fusion protein …; experiment: G assay
[32] = target: T15, GST-PTN-4 PDZ domain fusion protein …; experiment: A/G assays
[33] = target: T17, GST-RGS12 PDZ domain fusion protein …; experiment: A/G assays
[34] = target: T2, GST-DVL1 PDZ domain fusion protein …; experiment: A/G assays
[35] = target: T3, GST-TAX2 PDZ domain fusion protein …; experiment: A/G assays
[36] = target: T6, GST-SYN1a PDZ domain fusion protein …; experiment: A/G assays
[37] = target: T4, GST-TAX43 PDZ domain fusion protein …; experiment: A/G assays

T1 sequence (P08515 1-218, tags or fused parts left off): as above

Row | Binder | binding result [7] | binding result [8] | binding result [9] | binding result [10] | binding result [12] | binding result [13] | binding result [14] | binding result [15] | binding result [16] | binding result [17] | binding result [18] | binding result [19] | binding result [20] | also measured
1 | Biotin-LNSCSNRRVYKKMPSIESDV [NMDA C-terminal PL peptide AA34.2L, biotinylated] | no binding | no binding | no binding | no binding | no binding | no binding | no binding | no binding | no binding | no binding | no binding | no binding | no binding | binding result [1]: binds; binding result [2]: binds; binding result [3]: binds; binding result [4]: binds; binding result [5]: binds; binding result [6]: binds; binding result [11]: no binding; binding result [21]: binds; binding result [22]: binds; binding result [23]: binds; binding result [24]: binds; binding result [25]: binds
2 | Biotin-QGDPALQDAGDSSRKEYFI (also called GC) [Glycophorin C C-terminal PL peptide AA37L, biotinylated] | no binding | no binding | no binding | no binding | no binding | no binding | no binding | no binding | no binding | no binding | no binding | no binding | no binding | binding result [26]: no binding; binding result [27]: binds; binding result [28]: binds; binding result [29]: binds; binding result [30]: binds; binding result [31]: binds; binding result [32]: no binding; binding result [33]: no binding; binding result [34]: no binding; binding result [35]: no binding; binding result [36]: no binding; binding result [37]: no binding
